Data on three proteins can be found in article PMC12657314, “Structural modeling and biochemical characterization of MSMEG_0748, a MoxR ATPase from Mycobacterium smegmatis” (Computational and Structural Biotechnology Journal, 2025).

Substrate in the data set “purified protein”: Nc1ncnc2c1ncn2[C@@H]1O[C@H](COP(=O)(O)OP(=O)(O)OP(=O)(O)O)[C@@H](O)[C@H]1O
The data set can be described thus: purified protein. In kind it is biochemical, Mycolicibacterium smegmatis. The settings on record: 50 mM Tris-HCl pH 8.0, 150 mM KCl, 2 mM MgCl2, 2 mM DTT, 30 °C, 200 nM protein.

Data set [1] deals with the molecule itself. The data set can be described thus: SEC-MALS; Superdex 200 Increase 10/300 GL, 5 mg/mL protein injected, 20 mM Tris-HCl pH 7.5, 300 mM NaCl, 0.5 mM TCEP, flow 0.5 mL/min; DAWN Heleos II detector.

B1: MSMEG_0748 (Mycolicibacterium smegmatis MC2 155) (protein)
chain: MRMAAEPGAAVTGFGGVDDVVRRFDAHDYLLDEGTATAIYLAVSLGRPLLLEGEPGVGKTTAAKTLAAVLGTPLIRLQCYEGLTASEALYDWNYQRQLLSIRLAEARGGEHLDEAALYTESYLVDRPILQCVRHRGPSSPVLLVDEIDRADDEFEALLLEFLGEAAVTVPELGTFVAERPPVVVLTSNRSRDLHDALRRRCLYHWIEYPQRAQAVAIVRRTVPGATDALIDSAVQFVSAARELDLDKPPGVAETIDWVAALVALRVGDLVDPAALGTLGALAKTPDDSGLMRDALLDLTN
notes: full length, N-terminal His-tag cut off by rTEV protease, expressed in E. coli BL21(DE3)
Broadly, the Km is the substrate concentration at which the rate is half of its maximum. Turning to B1, in “purified protein”, the Km came to 0.6951 µM and the kcat is reported as 0.0251 S^−1.

B2: MSMEG_0748 (MoxR-type AAA+ ATPase from Mycobacterium smegmatis mc2 155), recombinant, tag-cleaved (enzyme, UniProt A0QQG6 1-300, looked up)
chain: MRMAAEPGAAVTGFGGVDDVVRRFDAHDYLLDEGTATAIYLAVSLGRPLLLEGEPGVGKTTAAKTLAAVLGTPLIRLQCYEGLTASEALYDWNYQRQLLSIRLAEARGGEHLDEAALYTESYLVDRPILQCVRHRGPSSPVLLVDEIDRADDEFEALLLEFLGEAAVTVPELGTFVAERPPVVVLTSNRSRDLHDALRRRCLYHWIEYPQRAQAVAIVRRTVPGATDALIDSAVQFVSAARELDLDKPPGVAETIDWVAALVALRVGDLVDPAALGTLGALAKTPDDSGLMRDALLDLTN
notes: MSMEG_0748, MoxR-type AAA+ ATPase, Mycobacterium smegmatis mc2 155, UniProt A0QQG6; amplified from genomic DNA into pProEX-HTa; full-length protein of about 32.7 kDa after removal of the His tag by rTEV protease; also called wild-type MSMEG_0748; MoxR ATPase; source: E. coli BL21(DE3), purified (Ni-NTA, TEV cleavage, second Ni-NTA, SEC on Superdex 200); not shown: His-tag, N-terminal, cleaved
Usually stoichiometry N stands for a count of units in the complex or per binding partner. For B2, the “stoichiometry N” value in data set [1] was 6.

B3: MSMEG_0748 (Mycolicibacterium smegmatis MC2 155; E146Q) (protein)
chain: MRMAAEPGAAVTGFGGVDDVVRRFDAHDYLLDEGTATAIYLAVSLGRPLLLEGEPGVGKTTAAKTLAAVLGTPLIRLQCYEGLTASEALYDWNYQRQLLSIRLAEARGGEHLDEAALYTESYLVDRPILQCVRHRGPSSPVLLVDQIDRADDEFEALLLEFLGEAAVTVPELGTFVAERPPVVVLTSNRSRDLHDALRRRCLYHWIEYPQRAQAVAIVRRTVPGATDALIDSAVQFVSAARELDLDKPPGVAETIDWVAALVALRVGDLVDPAALGTLGALAKTPDDSGLMRDALLDLTN
notes: as for B1
Turning to B3, in “purified protein”, the Km turned out to be 0.9024 µM and the kcat was determined as 0.0189 S^−1.
